# Source: patent US20230374114A1 (published 2023)
# B1: Ab 26 scFv-Fc (scFv, V domains shown)
# VH: QVQLVQSGGGLVQPGRSLRLSCAASGFTFDDYAMHWVRQVPGKGLEWVSGIDWNSGVIGYADSVKGRFTISRDNAKNSLYLQMNSLRAEDTALYYCAKDAYSYGFLGAFDIWGQGTMVTVSS
# VL: LPVLTQPPSVSVAPGQTASITCGGDNIRTKGVHWYQQKPGQAPLLVIYYASDRPSGIPERFSGSSSGNTATLTISRVEAGDEADYYCQVWDSSSDLVVFGGGTTLTVL
# B2: Ab 21 (scFv, V domains shown)
# VH: QVQLVQSGGGLVQPGGSLRLSCATSGFTFDDYAMHWVRQAPGKGLEWVSGISWNSGSIGYVDSVKGRFTISRDNRNNKVYLQMNNLRAEDTAVYYCARDWWGSIDHWGLGTLVTVSS
# VL: QSALTQPRSVSGSPGQSVTISCTGTSSDVGGYDYVSWYQQHPGKAPKLIIYDVSKRPSGVPDRFSGSKSGNTASLTVSGLQAEDEADYYCSSYTSSSPVVFGGGTKLTVL
# B3: Ab 23 scFv-Fc (scFv, V domains shown)
# VH: EVQLVQSGAEVKKPGSSVKVSCRSSGGTFSTYGITWVRQAPGQGLEWMGRIIPSLGIPNYAQKFQGRVTITADTSVSTAWMELSSLESDDTAIYYCARENIDLATNDFWGQGTLVTVSS
# VL: QSALTQPPSASGSPGQSVTISCTGTSRDIGAYGYVSWYQQVPGKAPKLIIYEVRNRPSGVSSRFSGSKSGNTASLTISGLQAEDEADYYCSSYTSSSTLDVVFGGGTKLTVL
# B4: Ab_16 (scFv, V domains shown)
# VH: QVQLVQSGGGVVQPGRSLRLSCAASGFTFSNYGMHWVRQAPGKGLEWVALIWERGSKKDYADSVKGRFTVSRDNSKNTLYLQMNSLRPEDTAVYFCAREGISMTGAEYFQHWGQGTLVTVSS
# VL: QSVLTQPPSVSGSPGQRVTMSCTGSSSNIGAGYDVHWYQQVPGAAPRLLIYGTNNRPSGVPDRFSGSKSGTSASLTITGLQAEDEADYYCQSYDNSLTDPYVFGTGTKVTVL
# B5: Ab 25 scFv-Fc (scFv, V domains shown)
# VH: QVQLVQSGGGLVQPGGSLRLSCAASGFTFSSYWMSWVRQAPGKGLEWVANIKQDGSEKYYVDSVKGRFTISRDNAKNSLYLQMNSLRAEDTAVYYCARGFYYYGAFDIWGQGTTVTVSS
# VL: NFMLTQPHSVSESPGKTVTISCTGSSGSIASNYVQWYQQRPGSAPTTVIYEDNQRPSGVPDRFSGSIGSSSNSASLTISGLKTEDEADYYCQSYDSSNHWVFGGGTKLTVL
# B6: Ab 20 (scFv, V domains shown)
# VH: QVQLVQSGGGSVKPGGSLRLSCAASGYRLSDYYMHWVRQAPGKGLEWVANIKQDGSEKYYVDSVKGRFTISRDNAKNSLYLQMNSLRAEDTAVYYCARVRGWSRGYFDYWGQGTLVTVSS
# VL: NFMLTQPHSVSESPGKTVTISCTGSSGSIASNYVQWYQQRPGSAPTTVIYEDNQRPSGVPDRFSGSIDSSSNSASLLISGLKTEDEADYYCQSYDSSNHWVFGGGTKLTVL
# B7: Ab 28 scFv-Fc (scFv, V domains shown)
# VH: QVTLKESGPGLVNPSETLSLTCTVSGASISNSFWSWIRQSPGKGLEWIGYTSYSGNSIYNPSLKSRLTMSIDTSKNQLSLNLRSLTAADTAVYYCARREWIKGHFDYWGQGTLVTVSS
# VL: NFMLTQPHSVSESPGKTVTISCTGSGGSIASNYVQWYQQRPGSAPTTVIYEDNQRPSGVPDRFSGSIDSSSNSASLTISGLKTEDEADYYCQSYDSSNPVVFGGGTKLTVL
# B8: Ab 14 scFv-Fc (scFv, V domains shown)
# VH: QVQLQQSGPGLVKPSQTLSLTCAISGDSVSSNSAAWNWIRQSPARGLEWLGRTYYRSRWYNDYAISMKSRITINPDTSKNQFSLQLESVTPEDTAVYYCAREIRGFDYWGQGTLVTVSS
# VL: QSVLTQPPSASGSPGQSVTISCTGTSSDVGAYNFVSWYQHHPGKAPKLIIYDFNKRPSGVPDRFSGSKSGNTASLTVSGLQADDEADYYCSSYAGSNNFDVVFGGGTKLTVL
# B9: Ab_17 (scFv, V domains shown)
# VH: QVQLVQSGGGVVQPGRSLRLSCAASGFTFDDYAMHWVRQVPGKGLEWVSGIDWNSGVIGYADSVKGRFTISRDNVKNSLYLQMNSLRTEDSALYYCAKDIGPGGSGSYYAFDIWGQGTTVTVSS
# VL: QSALTQPASVSGSPGQSITISCTGTSSDVGGSKYVSWYQQHPGKAPKVMIYDVTKRPSGVPDRFSGSKSGNTASLTISGLQAEDEADYYCAAWDDSLNGVVFGGGTKLTVL
# B10: Ab 19 scFv-Fc (scFv, V domains shown)
# VH: EVQLVESGAEVKKPGESLKISCKGSGYSFTSYWIGWVRQMPGKGLEWMGIIYPGDSDTRYSPSFQGQVTISADKSISTAYLQWSSLKASDTAMYYCARRGDLDAFDIWGQGTMVTVSS
# VL: QPGLTQPPAASGTPGQRVTVSCSGASANIGSNAVSWFKQFPETAPRLLISGNTHRPSGVPDRVSGSKSGTSASLTISGLQSDDEADYYCAAWDDSLNGYVFGSGTKVTVL
# B11: Ab_18 (scFv, V domains shown)
# VH: EVQLVQSGGGVVQPGRSLRVSCAASGFSFSRYGMHWVRQAPGKGLEWVAFIRHDGSKKYYADSVEGRFTISRDNSRNTVSLEMNSLRGEDTAVYYCAKDGRLEAALDDWGQGTLVTVSS
# VL: NFMLTQPHSMSGSAGKTVTVSCIRSSGSIANNFVQWYQQRPGSAPTTVIYEDNQRPSGVPDRFSGSIDSSSNSASLTISGLKTEDEADYYCQSYDSSNLVFGGGTRLTVL
# B12: Ab 27 scFv-Fc (scFv, V domains shown)
# VH: QVQLVQSGTEVKKPGASVKVSCKASGYSFTGSHLHWVRQAPGQGLEWMGWINPDSGVINYAQKFQGRVTLTRDTSISTAYMELSGLRSDDTAVYYCARDKAIGYVWALDYWGQGTLVTVSS
# VL: QSALTQPPSVSGSPGQSVTISCTGTSSDVGTYNRVSWYQQPPGKAPKLMIYEVSNRPSGVSNRFSGSKSGNTASLTISGLQAEDEADYYCSSYTRTFTYVFGTGTKVTVL
# B13: Ab 15 scFv-Fc (scFv, V domains shown)
# VH: QVQLVQSGGGLVKPGRSLRLSCTASGFTFGDYAMSWFRQAPGKGLEWVGFIRSKAYGGTTGYAASVKGRFTISRDDSKSIAYLQMNSLKTEDTAVYYCTTADDDMDVWGKGTTVTVSS
# VL: NFMLTQPHSVSESPGKTVTISCTRSSGTIASNYVQWYQQRPGSAPTTVIYEDNQRPSGVPDRFSGSIDRSSNSASLTISGLTPDDEADYYCQSYDTSNHYVFGTGTKVTVL
# B14: Ab_13 (scFv, V domains shown)
# VH: QVTLKESGPKLVKPTQTLTLTCTFSGFSLSTSGVGVGWIRQPPGKALEWLALIYWDDDKRYSPSLKSRLTIAKDTSKYQVVLTMTNMDPVDTATYYCARISGSGYFYPFDIWGQGTMVTVSA
# VL: NFMLTQPHSVSESPGKTVTISCTRSSGSIASNYVQWYQQRPGSAPTTVIYEDNQRPSGVPDRFSGSIDSSSNSASLTISGLKTEDEADYYCQSYDSSNLWVFGGGTKLTVL
# B15: Ab 12 Fab (Fab, V domains shown)
# VH: EVQLVESGPGVVSPSATLFLTCSVSGGSIRTHSWNWIRQPPGKPLEWIGFIHHSGATNKNPSLKSRVTISSDTSKNEFSLTLTSVTAADTAVYYCARGPGILSYWSRGTLVTVSS
# VL: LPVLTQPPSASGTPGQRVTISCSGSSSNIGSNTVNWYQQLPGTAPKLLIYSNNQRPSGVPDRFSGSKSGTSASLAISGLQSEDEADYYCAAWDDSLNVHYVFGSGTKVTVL
# B16: Ab 12 IgG (antibody, V domains shown)
# VH: EVQLVESGPGVVSPSATLFLTCSVSGGSIRTHSWNWIRQPPGKPLEWIGFIHHSGATNKNPSLKSRVTISSDTSKNEFSLTLTSVTAADTAVYYCARGPGILSYWSRGTLVTVSS
# VL: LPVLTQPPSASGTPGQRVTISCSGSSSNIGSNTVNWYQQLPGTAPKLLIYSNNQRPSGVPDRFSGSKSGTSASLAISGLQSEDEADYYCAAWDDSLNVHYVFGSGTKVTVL
# B17: Ab 12 scFv-Fc (S1-R3-T1-H7) (scFv, V domains shown)
# VH: EVQLVESGPGVVSPSATLFLTCSVSGGSIRTHSWNWIRQPPGKPLEWIGFIHHSGATNKNPSLKSRVTISSDTSKNEFSLTLTSVTAADTAVYYCARGPGILSYWSRGTLVTVSS
# VL: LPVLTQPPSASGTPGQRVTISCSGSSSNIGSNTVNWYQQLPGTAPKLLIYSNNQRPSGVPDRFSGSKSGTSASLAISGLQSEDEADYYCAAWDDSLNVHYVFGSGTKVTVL
# Molecular target: biotinylated RBD (BLI sensors) (UniProt P0DTC2 319-537)
# Assay: BLI
row,Binder,Kd [nM]
1,B1,0.704
2,B2,1.48
3,B3,< 0.001
4,B4,0.959
5,B5,0.223
6,B6,1.9
7,B7,0.166
8,B8,0.911
9,B9,0.882
10,B10,0.533
11,B11,2.31
12,B12,0.906
13,B13,6.61
14,B14,0.922

# Molecular target: SARS2 spike on transduced 293T cells (UniProt P0DTC2 14-1273)
# Assay: FACS
row,Binder,EC50 [nM]
1,B15,0.582
2,B16,0.00588
3,B17,0.0237
